Results published in paper PMC8349458.

Target: ACE2-Fc-TD
Test: SPR

SARS-CoV-2 S1 domain, B.1.1.7 (alpha variant) (from UniProt P0DTC2 14-681) (domain or fragment)
Half-life (ln2/kd) (s (from ln2/kd)): 1190 | Kd: 1.73 nM

SARS-CoV-2 S1 domain, D614G (from UniProt P0DTC2 14-681) (domain or fragment)
Kd: 6.91 nM

SARS-CoV-2 S1 domain, B.1.351 (beta variant) (from UniProt P0DTC2 14-681) (domain or fragment)
Half-life (ln2/kd) (s (from ln2/kd)): 454
